Measurements: patent US20110250203A1 (SYMPHOGEN A S, published 2011)

Target: T1, Recombinant human CD5 extracellular domain (CD5-ECD) (human, UniProt P06127 25-372)
T1 construct: In-house protein made as CD5-ECD - TEV site - hGH fusion; CD5-ECD isolated by TEV cleavage and nickel column; also called CD5-ECD protein
T1 sequence: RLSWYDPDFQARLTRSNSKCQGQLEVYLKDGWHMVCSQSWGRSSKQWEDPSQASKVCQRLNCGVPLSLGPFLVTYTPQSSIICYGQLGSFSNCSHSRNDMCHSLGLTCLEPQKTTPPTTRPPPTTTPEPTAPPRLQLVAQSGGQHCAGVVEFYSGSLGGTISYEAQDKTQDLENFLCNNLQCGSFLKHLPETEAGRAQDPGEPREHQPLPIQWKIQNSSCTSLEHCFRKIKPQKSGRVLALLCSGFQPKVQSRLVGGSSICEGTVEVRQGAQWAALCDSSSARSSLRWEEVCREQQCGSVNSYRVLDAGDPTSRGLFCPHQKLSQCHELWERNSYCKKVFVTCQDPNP
Assay: SPR (Biacore 2000), antibody captured by anti-human Fc, CD5-ECD in solution, 1:1 fit;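 note: CM5 chip, binding curves at four CD5-ECD concentrations fitted globally, with the signal of a non-CD5-binding control antibody subtracted as reference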
Experimental: SPR analysis was performed on a Biacore 2000 machine containing four flow cells. A CM5 Biacore chip was conjugated with 8.000 Resonance units (Ru) polyclonal anti-human IgG Fc-specific antibody to flow cells 1-4 according to the manufacturer's instructions. Each anti-CD5 antibody was determined for binding to four different concentrations of CD5-ECD (concentrations for the four cycles are shown below) before the affinity was calculated. The non-CD5 binding antibody, Erbitux served as a negative control and was subtracted from the values obtained with the anti-CD5 specific antibodies. […] Subsequently, all flow cells were washed and after waiting 500 s, 250 μl of CD5-ECD 100 nM or 200 nM (Cycle 1) was injected in Flow cells 1-4. After waiting 1000 s, 30 μl H3PO4 was injected using a flow rate of 60 μl/min. The antibody/antigen complex was then stripped with a low pH acid wash (30 sec. contact time with 100 mM H3PO4). […] Four new cycles were then repeated until all the anti-CD5 antibody clones were tested for binding to CD5 in four different concentrations. The association rate constant (ka) and dissociation constant (kd) were evaluated globally by fitting the four binding curves to predefined 1:1 (Langmuir) association and dissociation models with BIAevaluation 4.1 software (Biacore), Table 13.

Binder | Kd | koff | kon
Anti-CD5 antibody 1 (1D8) (antibody, human IgG1, V domains shown, also called Ab1; Clone 1) VH: EVQLQESGPELVKPEASVKISCKASGYSFTGYTMNWVKQSHGKNLEWIGLINPYNGGTTYNQKFKGKATLTVDTSSSTAFMELLSLTSEDSAVYYCARDYYGSSPDFDY VL: DIVLTQSTSSLSASLGDRVTINCSASQGISNHLNWFQQKSDGTVKLLIYFTSSLHSGVPSRFSGSGSGTDYSLTISNLEPEDIAAYYCQQYSNLPYT | 5.19 nM | 0.000557 s⁻¹ | 107000 M⁻¹ s⁻¹
Anti-CD5 antibody 11 (4E24) (antibody, human IgG1, V domains shown, also called Ab11; Clone 11) VH: EVQLKESGAELVRPGGSVKISCKGSGYTFTNFAIHWVKQSHIKTLEWIGLISTSSGDVSYNQKFKDKATMTVDKSSSTAYMELARLTSEDSAIYYCARHYGANNYFDY VL: EIVLTQSPTIMSASPGEQVTMTCRTNSSVSSSYLHWYQQKSGASPKLWIYGTSNLASGVPTRFSGSGSGTSYSLTISSVEAGDAATYFCQQYSGYPLT | 0.315 nM | 2.2e-05 s⁻¹ | 69900 M⁻¹ s⁻¹
Anti-CD5 antibody 12 (4F10) (antibody, human IgG1, V domains shown, also called Ab12; Clone 12) VH: EVQLQESGAELVRPGVSVKISCKGSGYTFTNFAIHWVKQSHAKSLEWIGLISSNSGDVSYNQKFKGKATMTVDKSSSTAYMELARLTSEDSAIYYCARHYGAHNYFDY VL: DIVLTQSPAIMSASPGEQVTMTCRATSSISSSYLHWYQQKSGASPKLWIYGTSNLASGVPTRFSGSGSGTSYSLTISSVEAEDAATYYCQQYSDYPLT | 1.18 nM | 0.000115 s⁻¹ | 97000 M⁻¹ s⁻¹
Anti-CD5 antibody 14 (7P9) (antibody, human IgG1, V domains shown, also called Ab14; Clone 14) VH: EVQLKESGAELVKPGASVKLSCTASGFNIKDTYMHWVKQRPEQGLEWIGRIDPANGNTKYDPKFQGKATITADTSSNTAYLQLSSLTSEDTAVYYCAREENYYGTYYFDY VL: NIVLTQSPASLAASVGETVTITCRASENIYYNLAWYQQKQGKSPQLLIYNANSLEDGVPSRFSGSGSGTQYSMKINSMQPEDTATYFCKQVYDVPFT | 5.6 nM | 0.0018 s⁻¹ | 321000 M⁻¹ s⁻¹
Anti-CD5 antibody 15 (8E24) (antibody, human IgG1, V domains shown, also called Ab15; Clone 15) VH: QVTLKESGAELVRPGASVKLSCKASGYSFTSYWMNWVKQRPGQGLEWIGMIHPSDSETRLNQKFKDKATLTVDKSSSTAYMQLSSPTSEDSAVYYCARWGDHDDAMDF VL: DIVLTQSPASLSASVGESVTITCRPSENIYGYFAWYQQRQGKSPQLLVYNAKTLAEGVPSRFSGSGSGTHFSLKINSLQPEDFGTYYCQHHYGTPFT | 23.4 nM | 0.00127 s⁻¹ | 54400 M⁻¹ s⁻¹
Anti-CD5 antibody 17 (7H7) (antibody, human IgG1, V domains shown, also called Ab17; Clone 17) VH: EVQLVESGPGLVQPSQSLSITCTVSGFSLTNYDVHWVRQSPGKGLEWLGVIWNYGNTDYNAAFISRLSIRKDSSKSQVFFTMSSLQTPDTAIYYCARNHGDGYYNWYFDV VL: NIVLTQSPSSLSESLGGKVTITCKASQDINKYIAWYQYKPGKGPRLLIHYTSTLQPGIPSRFSGSGSGRDYSFSISNLEPEDIATYYCLQYDNLWT | 0.164 nM | 8.45e-05 s⁻¹ | 515000 M⁻¹ s⁻¹
Anti-CD5 antibody 18 (1E7) (antibody, human IgG1, V domains shown, also called Ab18; Clone 18) VH: QVQLKESGGGLVQPGGSLKLSCAASGFTFSNYGMSWVRQIPDKRLELVAAINSNGDITYDPDSVKGRFTISRDNANNSLFLQMRSLKSEDTAMYYCARGTAWFTYWGQGTLVT VL: DIVLTQSPASLSASVGETVIITCRASENIYSYLVWYQQKQGKSPQLLVYNAKTLAEGVPSRFSGSGSGTQFSLKINSLQSEDFGSYSCQHHYGYPYT | 0.205 nM | 3.27e-05 s⁻¹ | 160000 M⁻¹ s⁻¹
Anti-CD5 antibody 23 (2H11) (antibody, V domains shown, also called Ab23; Clone 23) VH: EVQLQQSGPELVKPGTSVKISCKASGYTFTDYYINWVKQKPGQGLEWIGWIYPGGGNTRYIERFKGKATLTVDTSSSTAYMQLSSLTSEDTAVYFCARNGYWYFDV VL: DIVLTQSPSSLTVTAGEKVTMSCKSSQSLLNQKNYLTWYQQKTGQPPKLLIYWASTRESGVPDRFTGSGSGTDFTLTISSVQAEDLAVYYCQNDYDYPYT | 4.79 nM | 0.000105 s⁻¹ | 21900 M⁻¹ s⁻¹
Anti-CD5 antibody 29 (8E15) (antibody, human IgG1, V domains shown, also called Ab29; Clone 29) VH: QVQLKESGADLVKPGASVKLSCTASGFNIKDTYMNWVKERPEQGLEWIGRIDPANGNTKYDPKFQGKATITADTSSNTGYLQLSSLTSEDTAVYYCASYDPDY VL: DIVLTQSPASLAASVGETVTITCRASENIYYNLAWYQQKQGKSPQLLIYNANSLEGGVPSRFSGSGSGTQYSMKINSMQPEDTATYFCKQAYDVPWT | 2.09 nM | 0.00137 s⁻¹ | 655000 M⁻¹ s⁻¹
Anti-CD5 antibody 31 (3P16) (antibody, human IgG1, V domains shown, also called Ab31; Clone 31) VH: EVQLKESGPELKKPGETVKISCMTSGYMFTNHGMNWVKQAPGKGLKWMGWINTYTGEPTYGDGFKGRFVFSLETSASTAYLQINNLKNEDTATYFCARRVATYFDV VL: NIVLTQSPAILSVSPGERVSFSCRASQRIGTSMNWYQQRTNGSPRLLIKSASESISGIPSRFSGSGSGTDFTLSINSVESDDVADYYCQQSNSWPLT | 8.85 nM | 0.000803 s⁻¹ | 90700 M⁻¹ s⁻¹
Anti-CD5 antibody 8 (8G8) (antibody, human IgG1, V domains shown, also called Ab8; Clone 8) VH: QVQLKESGPELEKPGASVRISCKASGYSFTAYNINWVTQRDGKSLEWIGSIDPYYGDTKYNQKFKDKATLTVDKSSSTAHMQVKSLTSEDSAIYYCARRMITMGDWYFDV VL: EIVLTQSPSSLSASLGDRVTISCRASQDISNYLNWYQRKPDGTVKLLIYYTSRLQSGVPSRFSGSGSGSEYSLTISNLDQEDIATYFCQQGDALPWT | 0.37 nM | 9.81e-06 s⁻¹ | 26500 M⁻¹ s⁻¹
Anti-CD5 antibody 32 (4F3) (antibody, human IgG1, V domains shown, also called Ab32; Clone 32) VH: EVKLVESGPELKKPGETVKISCKASGYMFTNYGMNWVKQAPGKGLKWMGWINTYTGEPTYVEDFKGRFAFSLETSANTAYLQINNLKNEDTATYFCTRRSHITLDY VL: DIVLTQSPVILSVSPGERVSLSCRASQSIGTSINWYQQRTDGSPRLLIKSASESMSGIPSRFSGSGSGTDFTLSITSVESEDIADYYCQQSNSWPLT | 0.903 nM | 0.000116 s⁻¹ | 128000 M⁻¹ s⁻¹
Anti-CD5 antibody 34 (5O24) (antibody, human IgG1, V domains shown, also called Ab34; Clone 34) VH: EVKLVESGAELVRSGASVKLSCAASGFNIKDYYIHWVKQRPEQGLEWIGWIDPENGRTEYAPKFQGKATMTADTSSNTAYLQLSSLTSEDTAVYYCNNGNYVRHYYFDY VL: DVVLTQSPAILSASPGEKVTMTCRAISSVSYMHWYQQKPGSSPKPWIYATSNLASGVPARFSGSGSGTSYSLTISRVEAEDAATYYCQQWSSNPRT | 61.3 nM | 0.00084 s⁻¹ | 13700 M⁻¹ s⁻¹
Anti-CD5 antibody 9 (6M4) (antibody, human IgG1, V domains shown, also called Ab9; Clone 9) VH: QVQLKESGPELEKPGASVKISCKASGYSFTAYSMNWVKQNNGMSLEWIGSIDPYYGDTKYAQKFKGKATLTVDKASSTAYLQLKSLTSEDSAVYYCARRMITTGDWYFDV VL: HIVLTQSPSSLSASLGDRVTISCRASQDISTYLNWYQQKPDGTVKLLIFYTSRLHAGVPSRFSGSGSGTHHSLTISNLEQEDIATYFCQQGNSLPFT | 4.35 nM | 6.17e-05 s⁻¹ | 14200 M⁻¹ s⁻¹
